Test results as given in patent US20180099057.

Key:
[1] = tested on: T1, oligopeptide sequence GNWPWDWGWDWPWNWG (SEQ ID NO:8) tethering TCPP to the nanoparticle
T1 sequence: GNWPWDWGWDWPWNWG

[2] = tested on: T2, oligopeptide sequence GNwPwDwGwDwPwNwG (SEQ ID NO:9) tethering TCPP to the nanoparticle
T2 sequence: GNWPWDWGWDWPWNWG

[3] = tested on: T3, Cyanine 5.5 linked GR7G peptide (SEQ ID NO:5) on nanoplatform 1 / nanoplatform 2
T3 sequence: GRRRRRRRG

[4] = tested on: T4, oligopeptide sequence GRARQRLRARQG (SEQ ID NO:7) tethering TCPP to the nanoparticle
T4 sequence: GRARQRLRARQG

[5] = tested on: T5, oligopeptide sequence GRRRRRRRG (SEQ ID NO:5) tethering TCPP to the nanoparticle
T5 sequence: GRRRRRRRG

tryptophan 2,3-dioxygenase
calibration of nanoplatform fluorescence after 60 min. of incubation in HEPES buffer [1]: the concentration of TDO can be determined over the whole range from 10^-7 to 10^-16 M | calibration of nanoplatform fluorescence after 60 min. of incubation in HEPES buffer [2]: TDO does not react with the substrate GNwPwDwGwDwPwNwG (SEQ ID NO:9), because it is specific for L-tryptophan

indoleamine 2,3-dioxygenase 1
limit of detection, nanoplatform fluorescence after 60 min. of incubation in HEPES buffer [1]: the LOD for IDO1 is 10^-15 M | calibration of nanoplatform fluorescence after 60 min. of incubation in HEPES buffer [2]: the concentration of IDO1 can be determined over the range from 10^-7 to 10^-14 M

B1: arginase II (enzyme, UniProt P78540 23-354, looked up, species assumed)
Arginase-2, mitochondrial: VHSVAVIGAPFSQGQKRKGVEHGPAAIREAGLMKRLSSLGCHLKDFGDLSFTPVPKDDLYNNLIVNPRSVGLANQELAEVVSRAVSDGYSCVTLGGDHSLAIGTISGHARHCPDLCVVWVDAHADINTPLTTSSGNLHGQPVSFLLRELQDKVPQLPGFSWIKPCISSASIVYIGLRDVDPPEHFILKNYDIQYFSMRDIDRLGIQKVMERTFDLLIGKRQRPIHLSFDIDAFDPTLAPATGTPVVGGLTYREGMYIAEEIHNTGLLSALDLVEVNPQLATSEEEAKTTANLAVDVIASSFGQTREGGHIVYDQLPTPSSPDESENQARVRI
cyanine 7.0 fluorescence (FRET) of nanoplatform 1 after 1 h of incubation at 37° C. [3]: After incubation with arginase II, an increase in cyanine 7.0 fluorescence was observed | limit of detection from the calibration curve of FIG. 13 (nanoplatform 2, printed as nanoplatform 1) [3]: the LOD (limit of detection) of nanoplatform 1 is 10^-10 M | limit of detection of nanoplatform 1, quotient of integrated cyanine 5.5 and cyanine 7.0 fluorescence bands [3]: the LOD (limit of detection) of nanoplatform 1 is down to the picomolar level | limit of detection of nanoplatform 2, fluorescence increase over the whole range [3]: its LOD is only at 10^-7 M of arginase II concentration | limit of detection, TCPP fluorescence of the nanoplatform after 60 min. of incubation in HEPES buffer [4]: The limit of detection is estimated to 2×10^-16M arginase II | limit of detection, TCPP fluorescence of the nanoplatform after 60 min. of incubation in PBS [5]: The limit of detection is 10^-15 M arginase II
